Results as given in US20240301023A1 (PREVECEUTICAL MEDICAL, published 2024).
Square brackets hold non-standard residues; d marks the D form. Primed or numbered codes have the meaning given here. Ends that are not written are not given here. Phe(4-NO2) = N[C@@H](Cc1ccc([N+](=O)[O-])cc1)C(=O)O; Phe(4-Cl) = N[C@@H](Cc1ccc(Cl)cc1)C(=O)O; Phe(4-F) = N[C@@H](Cc1ccc(F)cc1)C(=O)O; Api = NC1(C(=O)O)CCNCC1; NMA″ = not defined here; NMA = N-methylarginine; Sar = CNCC(=O)O

Key:
Assay in all cases: cell-based or functional assay
[1] = molecular target: T1, Kappa opioid receptor (KOR) (Homo sapiens (Human), UniProt P41145 1-380)
T1 sequence (P41145 whole entry, form in doubt): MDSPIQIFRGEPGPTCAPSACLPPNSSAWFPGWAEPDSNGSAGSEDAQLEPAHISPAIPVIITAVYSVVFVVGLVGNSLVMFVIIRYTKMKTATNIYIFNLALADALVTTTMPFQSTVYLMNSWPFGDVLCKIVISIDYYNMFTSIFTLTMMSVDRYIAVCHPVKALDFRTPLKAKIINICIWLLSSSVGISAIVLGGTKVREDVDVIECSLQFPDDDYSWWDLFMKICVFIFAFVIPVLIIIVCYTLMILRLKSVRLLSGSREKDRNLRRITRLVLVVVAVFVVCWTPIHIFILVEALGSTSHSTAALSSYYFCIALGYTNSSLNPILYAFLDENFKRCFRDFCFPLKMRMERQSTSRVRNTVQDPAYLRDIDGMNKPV

[2] = molecular target: Delta opioid receptor (DOR)
Mu opioid receptor (MOR) [3] = molecular target: Mu opioid receptor (MOR)
Chain of Mu opioid receptor (MOR) (P35372 whole entry): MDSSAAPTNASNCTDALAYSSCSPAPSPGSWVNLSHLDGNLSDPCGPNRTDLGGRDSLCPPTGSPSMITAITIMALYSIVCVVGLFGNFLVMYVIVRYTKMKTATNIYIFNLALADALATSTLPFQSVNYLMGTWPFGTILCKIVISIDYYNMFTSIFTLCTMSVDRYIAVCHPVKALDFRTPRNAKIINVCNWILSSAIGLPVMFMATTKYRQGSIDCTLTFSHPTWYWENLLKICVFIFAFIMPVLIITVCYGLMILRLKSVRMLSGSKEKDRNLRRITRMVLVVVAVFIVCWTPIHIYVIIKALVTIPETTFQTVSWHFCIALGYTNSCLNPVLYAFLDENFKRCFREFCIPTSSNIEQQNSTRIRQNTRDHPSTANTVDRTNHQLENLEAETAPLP

[4] = molecular target: T1, Kappa opioid receptor (KOR); remark: listed apart in the source
[5] = molecular target: Delta opioid receptor (DOR); remark: listed apart in the source
Mu opioid receptor (MOR) [6] = molecular target: Mu opioid receptor (MOR); remark: listed apart in the source

| Binder | Activity (EC50, nM), cAMP assay [1] [nM] | Activity (EC50, nM), cAMP assay [2] [nM] | Activity (EC50, nM), cAMP assay (Mu opioid receptor (MOR) [3]) [nM] | cAMP assay (ALPHAScreen), result at 1 µM peptide [4] | cAMP assay (ALPHAScreen), result at 10 µM peptide [4] | cAMP assay (ALPHAScreen), result at 1 µM peptide [5] | cAMP assay (ALPHAScreen), result at 10 µM peptide [5] | cAMP assay (ALPHAScreen), result at 1 µM peptide (Mu opioid receptor (MOR) [6]) | cAMP assay (ALPHAScreen), result at 10 µM peptide (Mu opioid receptor (MOR) [6]) |
| --- | --- | --- | --- | --- | --- | --- | --- | --- | --- |
| [dF][dF][dL][dK][Api]-OH (N-terminus assumed; SMILES CC(C)C[C@@H](NC(=O)[C@@H](Cc1ccccc1)NC(=O)[C@H](N)Cc1ccccc1)C(=O)N[C@H](CCCCN)C(=O)NC1(C(=O)O)CCNCC1) [CR845 (SEQ ID NO. 35: DPhe-DPhe-DLeu-DLys-Cap-CO2H)] | 0.37 | > 10000 | > 10000 | 25.9 | 34.6 | -5.72 | 3.27 | 0.37 | 8.07 |
| H-Y[Sar][Phe(4-NO2)]LR[dR]-{C7H14‑CONH2} [SEQ ID NO. 31: NH2-Tyr-Sar-(4-NO2)Phe-Leu-Arg-DArg-C7H14-CONH2] | 2.49 | > 10000 | > 10000 |  |  |  |  |  |  |
| H-Y[Sar]FLRR-NH2 [SEQ ID NO. 2: NH2-Tyr-Sar-Phe-Leu-Arg-Arg-NH2] | 8.6 | > 10000 | 6700 | 21.6 | 32.4 | -0.47 | 22 | -2.5 | 12.4 |
| H-Y[Sar]FLR[dR]-NH2 [SEQ ID NO. 3: NH2-Tyr-Sar-Phe-Leu-Arg-DArg-NH2] | 74.7 | > 10000 | > 10000 | 27.2 | 43.6 | -2.27 | 2.24 | -0.68 | 2.17 |
| H-Y[Sar][Phe(4-F)]LR[dR]-NH2 [SEQ ID NO. 12: NH2-Tyr-Sar-(4-F)Phe-Leu-Arg-DArg-NH2] | 6.7 | > 10000 | 3450 |  |  |  |  |  |  |
| H-Y[Sar][Phe(4-Cl)]LK[dR]-NH2 (SMILES CC(C)C[C@H](NC(=O)[C@H](Cc1ccc(Cl)cc1)NC(=O)CN(C)C(=O)[C@@H](N)Cc1ccc(O)cc1)C(=O)N[C@@H](CCCCN)C(=O)N[C@H](CCCNC(=N)N)C(N)=O) [SEQ ID NO. 16: NH2-Tyr-Sar-(4-Cl)Phe-Leu-Lys-DArg-NH2] | 26 |  | > 10000 |  |  |  |  |  |  |
| H-Y[Sar][Phe(4-NO2)]LR[dR]-NH2 [SEQ ID NO. 4: NH2-Tyr-Sar-(4-NO2)Phe-Leu-Arg-DArg-NH2] |  | > 10000 | > 10000 |  |  | -0.75 | 2.04 | 0.17 | 2.52 |
| H-Y[Sar][Phe(4-F)]L[NMA][dR]-NH2 [SEQ ID NO. 14: NH2-Tyr-Sar-(4-F)Phe-Leu-NMA-DArg-NH2] | 11.6 | 1660 | 4000 |  |  |  |  |  |  |
| H-Y[Sar][Phe(4-Cl)]LR[dR]-NH2 [SEQ ID NO. 11: NH2-Tyr-Sar-(4-Cl)Phe-Leu-Arg-DArg-NH2] | 6.1 | > 10000 | > 10000 | 27.7 | 34 | -1.18 | 4.27 | -0.86 | 1.37 |
| H-Y[Sar][Phe(4-Cl)]LR[NMA″]-NH2 (reading uncertain; also: printed as NH2-Tyr-Sar-(4-Cl)Phe-Leu-Arg-NMA-NH2) [SEQ ID NO. 17: NH2-Tyr-Sar-(4-Cl)Phe-Leu-Arg-NMA-NH2] | 3.9 |  | > 10000 |  |  |  |  |  |  |
| H-Y[Sar][Phe(4-Cl)]LR[dR]I[dR]-NH2 [SEQ ID NO. 25: NH2-Tyr-Sar-(4-Cl)Phe-Leu-Arg-DArg-Ile-DArg-NH2] |  | > 10000 | 1610 |  |  |  |  |  |  |
| H-Y[Sar][Phe(4-NO2)]L[NMA][dR]-NH2 [SEQ ID NO. 15: NH2-Tyr-Sar-(4-NO2)Phe-Leu-NMA-DArg-NH2] | 13.5 | 1320 | > 10000 |  |  |  |  |  |  |
| H-Y[Sar][Phe(4-Cl)]LR[dR] (not fully specified (C-terminus); printed as NH2-Tyr-Sar-(4-Cl)Phe-Leu-Arg-DArg-C7H14-COOH) [SEQ ID NO. 28: NH2-Tyr-Sar-(4-Cl)Phe-Leu-Arg-DArg-C7H14-COOH] | 2.33 | > 10000 | > 10000 |  |  |  |  |  |  |
| H-Y[Sar][Phe(4-Cl)]LX[dR]-NH2 (not fully specified (residue 5); printed as NH2-Tyr-Sar-(4-Cl)Phe-Leu-NMA-DArg-NH2) [SEQ ID NO. 13: NH2-Tyr-Sar-(4-Cl)Phe-Leu-NMA-DArg-NH2] | 4.54 | > 10000 | > 10000 |  |  |  |  |  |  |
